T1: Human TFPI (tissue factor pathway inhibitor) (human, UniProt P10646 29-304, limits assumed)
T1 construct: Coated at 1 ug/ml on Maxisorb plates for the ELISA; For the Biacore work the human TFPI came from American Diagnostica
T1 sequence (looked up): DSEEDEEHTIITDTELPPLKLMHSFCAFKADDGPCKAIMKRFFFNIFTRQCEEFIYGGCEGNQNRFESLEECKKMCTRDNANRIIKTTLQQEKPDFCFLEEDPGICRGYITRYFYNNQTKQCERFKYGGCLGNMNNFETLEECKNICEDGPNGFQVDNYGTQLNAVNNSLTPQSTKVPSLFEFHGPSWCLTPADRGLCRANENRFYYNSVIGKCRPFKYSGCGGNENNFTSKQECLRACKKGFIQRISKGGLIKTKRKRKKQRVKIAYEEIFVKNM

B1: 2A8-g200 Fab (wild type) (Fab, V domains shown)
VH: EVQLVESGGGLVQPGGSLRLSCAASGFTFSSYGMDWVRQAPGKGLEWVSSIRGSRGSTYYADSVKGRFTISRDNSKNTLYLQMNSLRAEDTAVYYCARLYRYWFDYWGQGTLVTVSS
VL: SYELTQPPSVSVSPGQTARITCSGDNLPKYYAHWYQQKPGQAPVVVIFYDVNRPSGIPERFSGSNSGNTATLTISGTQAMDEADYYCQAWWSSTPVFGGGTKLTVLG
notes: Fab format, expressed in E. coli; also called wt gA200Fab; wild type 2A8-g200 Fab
B2: 2A8-g200 Fab VH-S50H (Fab, V domains shown)
VH: EVQLVESGGGLVQPGGSLRLSCAASGFTFSSYGMDWVRQAPGKGLEWVSHIRGSRGSTYYADSVKGRFTISRDNSKNTLYLQMNSLRAEDTAVYYCARLYRYWFDYWGQGTLVTVSS
VL: SYELTQPPSVSVSPGQTARITCSGDNLPKYYAHWYQQKPGQAPVVVIFYDVNRPSGIPERFSGSNSGNTATLTISGTQAMDEADYYCQAWWSSTPVFGGGTKLTVLG
B3: 2A8-g200 Fab VL-W90H (Fab, V domains shown)
VH: EVQLVESGGGLVQPGGSLRLSCAASGFTFSSYGMDWVRQAPGKGLEWVSSIRGSRGSTYYADSVKGRFTISRDNSKNTLYLQMNSLRAEDTAVYYCARLYRYWFDYWGQGTLVTVSS
VL: SYELTQPPSVSVSPGQTARITCSGDNLPKYYAHWYQQKPGQAPVVVIFYDVNRPSGIPERFSGSNSGNTATLTISGTQAMDEADYYCQAHWSSTPVFGGGTKLTVLG
notes: Member of the 2A8-g200 Fab histidine scanning library
B4: 2A8-g200 Fab VH-Y100H (Fab, V domains shown)
VH: EVQLVESGGGLVQPGGSLRLSCAASGFTFSSYGMDWVRQAPGKGLEWVSSIRGSRGSTYYADSVKGRFTISRDNSKNTLYLQMNSLRAEDTAVYYCARLHRYWFDYWGQGTLVTVSS
VL: SYELTQPPSVSVSPGQTARITCSGDNLPKYYAHWYQQKPGQAPVVVIFYDVNRPSGIPERFSGSNSGNTATLTISGTQAMDEADYYCQAWWSSTPVFGGGTKLTVLG
notes: as for B3
B5: 2A8-g200 Fab VL-V45H (Fab, V domains shown)
VH: EVQLVESGGGLVQPGGSLRLSCAASGFTFSSYGMDWVRQAPGKGLEWVSSIRGSRGSTYYADSVKGRFTISRDNSKNTLYLQMNSLRAEDTAVYYCARLYRYWFDYWGQGTLVTVSS
VL: SYELTQPPSVSVSPGQTARITCSGDNLPKYYAHWYQQKPGQAPVHVIFYDVNRPSGIPERFSGSNSGNTATLTISGTQAMDEADYYCQAWWSSTPVFGGGTKLTVLG
notes: as for B3
B6: 2A8-g200 Fab VL-L27H (Fab, V domains shown)
VH: EVQLVESGGGLVQPGGSLRLSCAASGFTFSSYGMDWVRQAPGKGLEWVSSIRGSRGSTYYADSVKGRFTISRDNSKNTLYLQMNSLRAEDTAVYYCARLYRYWFDYWGQGTLVTVSS
VL: SYELTQPPSVSVSPGQTARITCSGDNHPKYYAHWYQQKPGQAPVVVIFYDVNRPSGIPERFSGSNSGNTATLTISGTQAMDEADYYCQAWWSSTPVFGGGTKLTVLG
notes: as for B3
B7: 2A8-g200 Fab VH-Y32H (Fab, V domains shown)
VH: EVQLVESGGGLVQPGGSLRLSCAASGFTFSSHGMDWVRQAPGKGLEWVSSIRGSRGSTYYADSVKGRFTISRDNSKNTLYLQMNSLRAEDTAVYYCARLYRYWFDYWGQGTLVTVSS
VL: SYELTQPPSVSVSPGQTARITCSGDNLPKYYAHWYQQKPGQAPVVVIFYDVNRPSGIPERFSGSNSGNTATLTISGTQAMDEADYYCQAWWSSTPVFGGGTKLTVLG
notes: as for B3
B8: 2A8-g200 Fab VL-Y31H (Fab, V domains shown)
VH: EVQLVESGGGLVQPGGSLRLSCAASGFTFSSYGMDWVRQAPGKGLEWVSSIRGSRGSTYYADSVKGRFTISRDNSKNTLYLQMNSLRAEDTAVYYCARLYRYWFDYWGQGTLVTVSS
VL: SYELTQPPSVSVSPGQTARITCSGDNLPKYHAHWYQQKPGQAPVVVIFYDVNRPSGIPERFSGSNSGNTATLTISGTQAMDEADYYCQAWWSSTPVFGGGTKLTVLG
notes: as for B3
B9: 2A8-g200 Fab VH-Y102H (Fab, V domains shown)
VH: EVQLVESGGGLVQPGGSLRLSCAASGFTFSSYGMDWVRQAPGKGLEWVSSIRGSRGSTYYADSVKGRFTISRDNSKNTLYLQMNSLRAEDTAVYYCARLYRHWFDYWGQGTLVTVSS
VL: SYELTQPPSVSVSPGQTARITCSGDNLPKYYAHWYQQKPGQAPVVVIFYDVNRPSGIPERFSGSNSGNTATLTISGTQAMDEADYYCQAWWSSTPVFGGGTKLTVLG
notes: as for B3
B10: 2A8-g200 Fab VL-Y49H (Fab, V domains shown)
VH: EVQLVESGGGLVQPGGSLRLSCAASGFTFSSYGMDWVRQAPGKGLEWVSSIRGSRGSTYYADSVKGRFTISRDNSKNTLYLQMNSLRAEDTAVYYCARLYRYWFDYWGQGTLVTVSS
VL: SYELTQPPSVSVSPGQTARITCSGDNLPKYYAHWYQQKPGQAPVVVIFHDVNRPSGIPERFSGSNSGNTATLTISGTQAMDEADYYCQAWWSSTPVFGGGTKLTVLG
notes: as for B3
B11: 2A8-g200 Fab VL-F48H (Fab, V domains shown)
VH: EVQLVESGGGLVQPGGSLRLSCAASGFTFSSYGMDWVRQAPGKGLEWVSSIRGSRGSTYYADSVKGRFTISRDNSKNTLYLQMNSLRAEDTAVYYCARLYRYWFDYWGQGTLVTVSS
VL: SYELTQPPSVSVSPGQTARITCSGDNLPKYYAHWYQQKPGQAPVVVIHYDVNRPSGIPERFSGSNSGNTATLTISGTQAMDEADYYCQAWWSSTPVFGGGTKLTVLG
notes: as for B3

Experiments:
[1] = target: T1, Human TFPI (tissue factor pathway …); assay: pH 6.0 TFPI dissociation ELISA; ratio of the signals at pH 7.0 and pH 6.0
Description: (§1) Human TFPI, 1 μg/ml, was used to coat Maxisorb™ microtiter plates. Expression media, 100 μl, from each member of the His scan library, was added to two wells on the plate, in a pair wise fashion. The plate was incubated on a shaker at room temperature for 1 hr. The plate was washed 3× with PBST. PBS (pH 7.0) was added to one well of the pair, 100 mM pH6.0 Citrate buffer was added to the second well of the same pair. The plate was incubated at 37° C. with shaking for one hr. The plate was washed 3× with PBST and developed using amplex red. A pH 7.0/pH 6.0 ratio was established to rank the sensitive muteins. The ratio for wild type 2A8-g200 Fab was 1.0.

[2] = target: T1, Human TFPI (tissue factor pathway …); assay: ELISA on plate-coated human TFPI; Fab expression media bound, then 1 h at 37 C in PBS pH 7.0; amplex red
Description: as §1

[3] = target: T1, Human TFPI (tissue factor pathway …); assay: ELISA on plate-coated human TFPI; Fab expression media bound, then 1 h at 37 C in 100 mM citrate pH 6.0; amplex red
Description: as §1

[4] = target: T1, Human TFPI (tissue factor pathway …); assay: SPR (Biacore T200): human TFPI amine-coupled on a CM4 or CM5 chip, Fab variant injected, dissociation followed in pH 7.4 or pH 6.0 buffer
Description: Purified 2A8-g200 variants in Fab format (referred to as wt gA200Fab in Table 1) were tested using surface plasmon resonance (Biacore). Surface plasmon resonance (Biacore T200) was used to measure the dissociation rate of the antibodies. […] Purified 2A8-g200 variants were injected, following by 40-minute dissociation either at pH7.4 or pH6.0 buffer. The antibodies were diluted in HBS-P buffer at different concentrations and the flow rate was set to 50 μl/min. After each round of antibody injection, the chip was regenerated by injecting 90 μl of pH 1.5 glycine. The data set was evaluated using BIAevaluation Software.
The dissociation constant (kd) for each 2A8-g200 variant antibody was determined by using a model with the following equation: […]
where R is the response at time t, R₀ is the response at time t_{0.}—the start of dissociation, offset allows for a residual response at the end of complete dissociation. A ratio of kd at pH 6.0 to kd at pH 7.4 was calculated for each 2A8-g200 variant. A mutation with observed ratio of […] was considered as pH-sensitive mutation and could be used for construction of IgG variants of 2A8-g200.

Row | Binder | Ratio pH 7.0/pH 6.0 [1] | TFPI ELISA signal, pH 7.0 [2] | TFPI ELISA signal, pH 6.0 [3] | fold (x) printed after the variant's name; the sheet does not name it, paragraph 57 speaks of the ratio of kd at pH 6.0 to kd at pH 7.4 [4] [x]
1 | B1 | 0.98 | 5250 | 5350 | –
2 | B2 | 1.32 | 2160 | 1640 | –
3 | B3 | 1.21 | 1830 | 1510 | –
4 | B4 | 1.78 | 2540 | 1430 | –
5 | B5 | 1.24 | 2200 | 1770 | –
6 | B6 | 1.3 | 3420 | 2640 | 2.7
7 | B7 | 1.38 | 3560 | 2580 | –
8 | B8 | 6.84 | 913 | 133 | 3.2
9 | B9 | 3.07 | 3310 | 1080 | –
10 | B10 | 1.3 | 2660 | 2040 | –
11 | B11 | 1.33 | 2070 | 1550 | –
